Measurements from patent publication US20220048967A1 (published 2022).
Numbered stars: 1 amine (or outer) side, 2 acyl side, 3 side chain; on linkers, the order of the positions; unused ones are H or OH. Square brackets hold non-standard residues; d marks the D form. Side chains are listed from the residue outwards. Ends that are not written are not given here. * marks the point of attachment. C20 diacid = O=C(O)CCCCCCCCCCCCCCCCCCC(=O)*; γGlu = O=C(O)[C@H](CCC(=O)[*:2])N[*:1]; AEEA = NCCOCCOCC(=O)O; Aib = CC(C)(N)C(=O)O

T1: human GIP receptor (human, UniProt P48546 22-466)
T1 sequence (looked up): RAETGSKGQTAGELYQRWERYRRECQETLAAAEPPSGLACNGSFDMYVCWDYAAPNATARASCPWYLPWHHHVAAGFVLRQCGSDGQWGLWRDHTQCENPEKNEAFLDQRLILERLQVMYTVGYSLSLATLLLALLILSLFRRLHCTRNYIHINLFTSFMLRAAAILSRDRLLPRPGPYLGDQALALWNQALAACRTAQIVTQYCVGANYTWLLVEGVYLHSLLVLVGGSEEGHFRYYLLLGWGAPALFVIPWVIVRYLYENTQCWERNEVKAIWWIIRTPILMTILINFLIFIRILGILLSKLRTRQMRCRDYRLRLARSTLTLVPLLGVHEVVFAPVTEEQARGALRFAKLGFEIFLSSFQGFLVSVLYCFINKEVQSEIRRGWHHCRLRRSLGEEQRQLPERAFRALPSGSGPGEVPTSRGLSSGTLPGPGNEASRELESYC


Key:
[1] = biological target: T1, human GIP receptor; assay: cell-based or functional assay
[2] = biological target: human GLP-1 receptor (human, UniProt P43220 24-463); assay: cell-based or functional assay

| Binder | hGIPR cAMP EC50 ratio [1] | hGIPR cAMP Rel EC50 [1] [nM] | hGLP1R cAMP EC50 ratio [2] | hGLP1R cAMP Rel EC50 [2] [nM] |
| --- | --- | --- | --- | --- |
| Y[Aib]EGTFTSDYSILLD[Aib]IAQK([AEEA-AEEA-γGlu-C20 diacid])AFIEYLIEGGPSSGAPPPS-NH2 (N-terminus assumed; SMILES CC[C@H](C)[C@H](NC(=O)[C@H](CC(C)C)NC(=O)[C@H](Cc1ccc(O)cc1)NC(=O)[C@H](CCC(=O)O)NC(=O)[C@@H](NC(=O)[C@H](Cc1ccccc1)NC(=O)[C@H](C)NC(=O)[C@H](CCCCNC(=O)COCCOCCNC(=O)COCCOCCNC(=O)CC[C@H](NC(=O)CCCCCCCCCCCCCCCCCCC(=O)O)C(=O)O)NC(=O)[C@H](CCC(N)=O)NC(=O)[C@H](C)NC(=O)[C@@H](NC(=O)C(C)(C)NC(=O)[C@H](CC(=O)O)NC(=O)[C@H](CC(C)C)NC(=O)[C@H](CC(C)C)NC(=O)[C@@H](NC(=O)[C@H](CO)NC(=O)[C@H](Cc1ccc(O)cc1)NC(=O)[C@H](CC(=O)O)NC(=O)[C@H](CO)NC(=O)[C@@H](NC(=O)[C@H](Cc1ccccc1)NC(=O)[C@@H](NC(=O)CNC(=O)[C@H](CCC(=O)O)NC(=O)C(C)(C)NC(=O)[C@@H](N)Cc1ccc(O)cc1)[C@@H](C)O)[C@@H](C)O)[C@@H](C)CC)[C@@H](C)CC)[C@@H](C)CC)C(=O)N[C@@H](CCC(=O)O)C(=O)NCC(=O)NCC(=O)N1CCC[C@H]1C(=O)N[C@@H](CO)C(=O)N[C@@H](CO)C(=O)NCC(=O)N[C@@H](C)C(=O)N1CCC[C@H]1C(=O)N1CCC[C@H]1C(=O)N1CCC[C@H]1C(=O)N[C@@H](CO)C(N)=O) [Example 13] | 0.18 | 1.05 | 0.0133 | 5.39 |
| Y[Aib]EGTFTSDYSILLDKIAQKEFIQYLLE[Aib]GPSSGAPPPS-NH2 (not fully specified (residue 20)) [Example 14] | 0.545 | 0.284 | 0.0306 | 1.87 |
| H[Aib]EGTFTSDYSILLDKKAQ[Aib]AFIEYLLE[Aib]GPSSGAPPPS-NH2 (not fully specified (residue 17)) [Example 15] | 0.273 | 0.613 | 1.65 | 0.0336 |
| Y[Aib]EGTFTSDYSILLDSIAQ[Aib]AFIK([AEEA-AEEA-γGlu-C20 diacid])YLLA[Aib]GPSSGAPPPS-NH2 (N-terminus assumed; SMILES CC[C@H](C)[C@H](NC(=O)[C@H](CO)NC(=O)[C@H](CC(=O)O)NC(=O)[C@H](CC(C)C)NC(=O)[C@H](CC(C)C)NC(=O)[C@@H](NC(=O)[C@H](CO)NC(=O)[C@H](Cc1ccc(O)cc1)NC(=O)[C@H](CC(=O)O)NC(=O)[C@H](CO)NC(=O)[C@@H](NC(=O)[C@H](Cc1ccccc1)NC(=O)[C@@H](NC(=O)CNC(=O)[C@H](CCC(=O)O)NC(=O)C(C)(C)NC(=O)[C@@H](N)Cc1ccc(O)cc1)[C@@H](C)O)[C@@H](C)O)[C@@H](C)CC)C(=O)N[C@@H](C)C(=O)N[C@@H](CCC(N)=O)C(=O)NC(C)(C)C(=O)N[C@@H](C)C(=O)N[C@@H](Cc1ccccc1)C(=O)N[C@H](C(=O)N[C@@H](CCCCNC(=O)COCCOCCNC(=O)COCCOCCNC(=O)CC[C@H](NC(=O)CCCCCCCCCCCCCCCCCCC(=O)O)C(=O)O)C(=O)N[C@@H](Cc1ccc(O)cc1)C(=O)N[C@@H](CC(C)C)C(=O)N[C@@H](CC(C)C)C(=O)N[C@@H](C)C(=O)NC(C)(C)C(=O)NCC(=O)N1CCC[C@H]1C(=O)N[C@@H](CO)C(=O)N[C@@H](CO)C(=O)NCC(=O)N[C@@H](C)C(=O)N1CCC[C@H]1C(=O)N1CCC[C@H]1C(=O)N1CCC[C@H]1C(=O)N[C@@H](CO)C(N)=O)[C@@H](C)CC) [Example 10] | 0.151 | 1.28 | 0.00912 | 7.64 |
| Y[Aib]EGTFTSDYSILLDSIAQ[Aib]AFIEYLLK([AEEA-AEEA-γGlu-C20 diacid])[Aib]GPSSGAPPPS-NH2 (N-terminus assumed; SMILES CC[C@H](C)[C@H](NC(=O)[C@H](CO)NC(=O)[C@H](CC(=O)O)NC(=O)[C@H](CC(C)C)NC(=O)[C@H](CC(C)C)NC(=O)[C@@H](NC(=O)[C@H](CO)NC(=O)[C@H](Cc1ccc(O)cc1)NC(=O)[C@H](CC(=O)O)NC(=O)[C@H](CO)NC(=O)[C@@H](NC(=O)[C@H](Cc1ccccc1)NC(=O)[C@@H](NC(=O)CNC(=O)[C@H](CCC(=O)O)NC(=O)C(C)(C)NC(=O)[C@@H](N)Cc1ccc(O)cc1)[C@@H](C)O)[C@@H](C)O)[C@@H](C)CC)C(=O)N[C@@H](C)C(=O)N[C@@H](CCC(N)=O)C(=O)NC(C)(C)C(=O)N[C@@H](C)C(=O)N[C@@H](Cc1ccccc1)C(=O)N[C@H](C(=O)N[C@@H](CCC(=O)O)C(=O)N[C@@H](Cc1ccc(O)cc1)C(=O)N[C@@H](CC(C)C)C(=O)N[C@@H](CC(C)C)C(=O)N[C@@H](CCCCNC(=O)COCCOCCNC(=O)COCCOCCNC(=O)CC[C@H](NC(=O)CCCCCCCCCCCCCCCCCCC(=O)O)C(=O)O)C(=O)NC(C)(C)C(=O)NCC(=O)N1CCC[C@H]1C(=O)N[C@@H](CO)C(=O)N[C@@H](CO)C(=O)NCC(=O)N[C@@H](C)C(=O)N1CCC[C@H]1C(=O)N1CCC[C@H]1C(=O)N1CCC[C@H]1C(=O)N[C@@H](CO)C(N)=O)[C@@H](C)CC) [Example 11] | 0.399 | 0.486 | 0.0111 | 6.89 |
| H[Aib]EGTFTSDYSILLDKK([AEEA-AEEA-γGlu-C20 diacid])AQ[Aib]AFIEYLIE[Aib]GPSSGAPPPS-NH2 (N-terminus assumed; SMILES CC[C@H](C)[C@H](NC(=O)[C@H](Cc1ccccc1)NC(=O)[C@H](C)NC(=O)C(C)(C)NC(=O)[C@H](CCC(N)=O)NC(=O)[C@H](C)NC(=O)[C@H](CCCCNC(=O)COCCOCCNC(=O)COCCOCCNC(=O)CC[C@H](NC(=O)CCCCCCCCCCCCCCCCCCC(=O)O)C(=O)O)NC(=O)[C@H](CCCCN)NC(=O)[C@H](CC(=O)O)NC(=O)[C@H](CC(C)C)NC(=O)[C@H](CC(C)C)NC(=O)[C@@H](NC(=O)[C@H](CO)NC(=O)[C@H](Cc1ccc(O)cc1)NC(=O)[C@H](CC(=O)O)NC(=O)[C@H](CO)NC(=O)[C@@H](NC(=O)[C@H](Cc1ccccc1)NC(=O)[C@@H](NC(=O)CNC(=O)[C@H](CCC(=O)O)NC(=O)C(C)(C)NC(=O)[C@@H](N)Cc1c[nH]cn1)[C@@H](C)O)[C@@H](C)O)[C@@H](C)CC)C(=O)N[C@@H](CCC(=O)O)C(=O)N[C@@H](Cc1ccc(O)cc1)C(=O)N[C@@H](CC(C)C)C(=O)N[C@H](C(=O)N[C@@H](CCC(=O)O)C(=O)NC(C)(C)C(=O)NCC(=O)N1CCC[C@H]1C(=O)N[C@@H](CO)C(=O)N[C@@H](CO)C(=O)NCC(=O)N[C@@H](C)C(=O)N1CCC[C@H]1C(=O)N1CCC[C@H]1C(=O)N1CCC[C@H]1C(=O)N[C@@H](CO)C(N)=O)[C@@H](C)CC) [Example 16] | 0.157 | 0.975 | 1.43 | 0.0437 |
| Y[Aib]EGTFTSDYSILLDKIAQK([AEEA-AEEA-γGlu-C20 diacid])AFIEYLIEGGPSSGAPPPS-NH2 (N-terminus assumed; SMILES CC[C@H](C)[C@H](NC(=O)[C@H](CCCCN)NC(=O)[C@H](CC(=O)O)NC(=O)[C@H](CC(C)C)NC(=O)[C@H](CC(C)C)NC(=O)[C@@H](NC(=O)[C@H](CO)NC(=O)[C@H](Cc1ccc(O)cc1)NC(=O)[C@H](CC(=O)O)NC(=O)[C@H](CO)NC(=O)[C@@H](NC(=O)[C@H](Cc1ccccc1)NC(=O)[C@@H](NC(=O)CNC(=O)[C@H](CCC(=O)O)NC(=O)C(C)(C)NC(=O)[C@@H](N)Cc1ccc(O)cc1)[C@@H](C)O)[C@@H](C)O)[C@@H](C)CC)C(=O)N[C@@H](C)C(=O)N[C@@H](CCC(N)=O)C(=O)N[C@@H](CCCCNC(=O)COCCOCCNC(=O)COCCOCCNC(=O)CC[C@H](NC(=O)CCCCCCCCCCCCCCCCCCC(=O)O)C(=O)O)C(=O)N[C@@H](C)C(=O)N[C@@H](Cc1ccccc1)C(=O)N[C@H](C(=O)N[C@@H](CCC(=O)O)C(=O)N[C@@H](Cc1ccc(O)cc1)C(=O)N[C@@H](CC(C)C)C(=O)N[C@H](C(=O)N[C@@H](CCC(=O)O)C(=O)NCC(=O)NCC(=O)N1CCC[C@H]1C(=O)N[C@@H](CO)C(=O)N[C@@H](CO)C(=O)NCC(=O)N[C@@H](C)C(=O)N1CCC[C@H]1C(=O)N1CCC[C@H]1C(=O)N1CCC[C@H]1C(=O)N[C@@H](CO)C(N)=O)[C@@H](C)CC)[C@@H](C)CC) [Example 12] | 0.659 | 0.3 | 0.0603 | 1.15 |
